The source of these data is the RNAGym collection of RNA variant scans (doi:10.1073/pnas.2313332121).

The chains are these.
B1: TPR t1 (parent)
chain: GACCAAUCUGCCCUCAGAGCUCGAGAACAUCUUCGGAUGCAGAGGAGGCAGGCUUCGGUGGCGCGAUAGCGCCAACGUCCUCAACCUCCAAUGCAUCCCACCACAUGAUGAUGCCUGAAGAGCCUUGGUUUUUUG

The variants in this data set derive from B1. Kind of data set: polymerase ribozyme fitness, log enrichment relative to wild type (log ratio); higher = more active; in vitro selection for triplet polymerase activity. A digest of the protocol: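 A single round of triplicate in vitro selection, including frozen incubation at −7 °C, was applied to PCR-built, transcribed mutant libraries of each subunit of a heterodimeric triplet polymerase ribozyme. Illumina sequencing of input and output libraries retained genotypes with ≥10 input reads and ≥1 read per output. Fitness is the base-2 logarithm of genotype enrichment divided by wild-type enrichment, from inverse-variance-weighted replicate averages.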
Regarding GACCAAUCUGCCCUCAGAGCUCGAGAACAUCUUCGGAUGCAGAGGAGGCAGGCUUUGGUGGCGCGAUAGCGCCAACGUCCUCAACCUCCAAUGCAUCCCCCCACAUGAUGACGCCUGAAGAGCCUUGGUUUUUUG [C56U A100C U112C], the “polymerase ribozyme fitness (log ratio)” value worked out at 0.715.

As to GACCAAUCUGCCCUCAGAGCUCGAGAACAUCUUCGGAUGCAGAGGAGGCAGGCUUUGGUGGCGCGAUAGCGACAACGUCCUCAACCUCCAAUGCAUCCCACCACAUGAUGAUGCCUGAAAAGCCUUGGUUUUUUG [C56U C72A G120A], the “polymerase ribozyme fitness (log ratio)” value is -0.183.

Turning to GACCAAUCUGCCCUCAGAGCUCGAGAACAUCUUCGGAUGCAGAGGAGGCAGGCUUUGGUGGCGCGAUAGCGCCAACGUCCUCAACCUCCAAUGCCUCUCACCACAUGAUGAUGCCUGAAGAGCCUUGGUUUUUUG [C56U A95C C98U], the “polymerase ribozyme fitness (log ratio)” value is -1.83.

Regarding GACCAAUCUGCCCUCAGAGCUCGAGAACAUCUUCGGAUGCAGAGGAGGCAGGCUUUGGUGGCGUGAUAGCGCCGACGUCCUCAACCUCCAAUGCAUCCCACCACAUGAUGAUGCCUGAAGAGCCUUGGUUUUUUG [C56U C64U A74G], the “polymerase ribozyme fitness (log ratio)” value is -3.32.

With GACCAAUCUGCCCUCAGAGCUCGAGAACAUCUUCGGAUGCAGAGGAGGCAGGCUUUGGUGGCGCGAUAGCGACAACGUCCUCAACCUCCAAUGCAUCCCACCACAUGAUGAUGCCUGAAGAACCUUGGUUUUUUG [C56U C72A G122A], the “polymerase ribozyme fitness (log ratio)” value was -1.69.

In the case of GACCAAUCUGCCCUCAGAGCUCGAGAACAUCUUCGGAUGCAGAGGAGGCAGGCUUGGGUGGCGCGAUAGCGCCAACGUCCGCAACCUCCAAUGCAUCCCACCACAUGAUGAUGCCUGAAGAGCCUUGGUUUUUUG [C56G U81G], the “polymerase ribozyme fitness (log ratio)” value was -2.07.

For the variant GACCAAUCUGCCCUCAGAGCUCGAGAACAUCUUCGGAUGCAGAGGAGGCAGGCUUGGGUGGCGCGAUAGCGCCAACGGCCUCAACCUCCAAUGCAUCCCACCACAUGAUGAUGCCUGAAGCGCCUUGGUUUUUUG [C56G U78G A121C], the “polymerase ribozyme fitness (log ratio)” value was found to be 1.64.

As to GACCAAUCUGCCCUCAGAGCUCGAGAACAUCUUCGGAUGCAGAGGAGGCAGGCUUGGGUGGCGCGAUAGCGCCAACGUCCUCAACCUCCAAUGCAUCCCACCACAUGAAGAUGCCUGAAGAGCCUUGGUUUUUUG [C56G U109A], the “polymerase ribozyme fitness (log ratio)” value is -4.28.

GACCAAUCUGCCCUCAGAGCUCGAGAACAUCUUCGGAUGCAGAGGAGGCAGGCUUUGGUGGAGCGAUAGCGCCAUCGUCCCCAACCUCCAAUGCAUCCCACCACAUGAUGAUGACUGAAGAGCCGUGGUUUUUUG [C56U C62A A75U U81C C114A U125G]: the “polymerase ribozyme fitness (log ratio)” value was -4.69.

Regarding GACCAAUCUGCCCUCAGAGCUCGAGAACAUCUUCGGAUGCAGAGGAGGCAGGCUUUGGUGGCGCGAUAGUGCCAACGUCCUCAACCUCCAAUGCAUCCCACCACAUGAUGAUGCCUGAAGAGCCUUGGUUUCUUG [C56U C70U U132C], the “polymerase ribozyme fitness (log ratio)” value was -0.908.

On to GACCAAUCUGCCCUCAGAGCUCGAGAACAUCUUCGGAUGCAGAGGAGGCAGGCUUUGGUGGCGCGAUAGCGCCAACGUCCUCCACCUCCAAUGCAUCCCACCACAUGAUGAUGCCUGAAGAGCCUUGGUUUUUUG [C56U A83C], for which the “polymerase ribozyme fitness (log ratio)” value turned out to be 1.56.

Turning to GACCAAUCUGCCCUCAGAGCUCGAGAACAUCUUCGGAUGCAGAGGAGGCAGGCUUGGGUGGCGCGAUAGCGCCAACGUCCUCAACCUCCAAUGCAUCCCACCACAUGAUGAUGCCUGAAGAGCCUUGGUUUUUUC [C56G G135C], the “polymerase ribozyme fitness (log ratio)” value was -0.404.

Take GACCAAUCUGCCCUCAGAGCUCGAGAACAUCUUCGGAUGCAGAGGAGGCAGGCUUUGGUGGCGAGAUAGCGCCAACGUCCUCAACCUCCAAUGCAUCCCACCACAUGAUGAUGCCUGAAGAGCCUUGGUUUUUUG [C56U C64A]: the “polymerase ribozyme fitness (log ratio)” value was -7.74.

Take GACCAAUCUGCCCUCAGAGCUCGAGAACAUCUUCGGAUGCAGAGGAGGCAGGCUUUGGUGGCGCGAUAGAGCCAACGUCCUCAACCUCCAAUGCAUCCCACCACAUGAUGAUGCCUGAAGAGCCUUGGUUUUUUG [C56U C70A]: the “polymerase ribozyme fitness (log ratio)” value was -3.82.

Regarding GACCAAUCUGCCCUCAGAGCUCGAGAACAUCUUCGGAUGCAGAGGAGGCAGGCUUGGGUGGCGCGAUAGCGCCAACGACCUCAACCUCCAAUGCAUCCCACCACAUGAUGAUGCCGGAAGAGCCUUGGUUUUUUG [C56G U78A U116G], the “polymerase ribozyme fitness (log ratio)” value is -3.2.

GACCAAUCUGCCCUCAGAGCUCGAGAACAUCUUCGGAUGCAGAGGAGGCAGGCUUGGGUGGCGCGAUAGCGCCAACGUCCUCAACCUCCAAUGCAUCCCACCACAUGAUGAUGCCUCAAGAGCCUUGGUUUUUUG [C56G G117C]: the “polymerase ribozyme fitness (log ratio)” value is -2.91.

Regarding GACCAAUCUGCCCUCAGAGCUCGAGAACAUCUUCGGAUGCAGAGGAGGCAGGCUUUGGUGGCGCGAUAGCGCCGACGUCCGCAACCUCCAAUGCAUCCCACCACAUGAUGAUGCCUUUAGAGCCUUGGUUUUUUG [C56U A74G U81G G117U A118U], the “polymerase ribozyme fitness (log ratio)” value is -4.51.

Take GACCAAUCUGCCCUCAGAGCUCGAGAACAUCUUCGGAUGCAGAGGAGGCAGGCUUUGGUGGCGAGAUAGCGCCAACGUCCUCAACCUCCAAUGCAUCCCACCACAUGAUGAUGCUUGAAGAGCCUUGGUUUUUUG [C56U C64A C115U]: the “polymerase ribozyme fitness (log ratio)” value is -7.12.

For the variant GACCAAUCUGCCCUCAGAGCUCGAGAACAUCUUCGGAUGCAGAGGAGGCAGGCUUUGGUGGUGCGAUAGCGCCAACGUCCUCAACCUCCAAUGCAUCCCACCACAUGAUGAUGCCUGAAGAGCCUUGGUUUUUUG [C56U C62U], the “polymerase ribozyme fitness (log ratio)” value was -0.378.

In the case of GACCAAUCUGCCCUCAGAGCUCGAGAACAUCUUCGGAUGCAGAGGAGGCAGGCUUUGGUGGCGCGAUAGCGCCGACGUCCUCAACCUCCAAUGCAUCCCACCACAUGAUAAAGCCUGAAGAGCCUUGGUUUUUUG [C56U A74G G110A U112A], the “polymerase ribozyme fitness (log ratio)” value is -2.67.

With GACCAAUCUGCCCUCAGAGCUCGAGAACAUCUUCGGAUGCAGAGGAGGCAGGCUUUGGUGGCGCGAUAGCGGCAACGUCCUCGACCUCCAAUGCAUCCCACCACAUGAUGAUGCCUGAAGAGUCUUGGUUUUUUG [C56U C72G A83G C123U], the “polymerase ribozyme fitness (log ratio)” value is -1.18.
